Measurements from the supplement of paper PMC10899765.

test system: MCF10A; assay: percent viability (nuclei count relative to siNT); higher = more viable cells; details: 20 nM; 72 h
Procedure: (§1)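 After 72 h, cells were fixed and stained with Hoechst and anti-fibrillarin, and nucleoli per nucleus were counted with CellProfiler. Values are plate-adjusted percent effect for the one-nucleolus and 5+ nucleoli phenotypes, normalised to siNT (0%) and to the positive controls siNOL11 or siKIF11 (100%), as the mean of biological triplicates. Percent viability is the nuclei count relative to siNT.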

Row | Sequence | percent viability
1 | UUAGGCCAUCAUCCCAUUAUGC [hsa-miR-5704] | 181%
2 | GAACCCAUGAGGUUGAGGCUGCAGU [hsa-miR-1273d] | 39.1%
3 | CCUAUUCUUGAUUACUUGUUUC [hsa-miR-26a-2-3p] | 138%
4 | UUGCCAGGGCAGGAGGUGGAA [hsa-miR-5006-5p] | 69.9%
5 | UGGGAGGGCGUGGAUGAUGGUG [hsa-miR-6785-5p] | 51.8%
6 | UAGGACUGUGCUUGGCACAUAG [hsa-miR-3169] | 27.4%
7 | GGGCUGGGGCGCGGGGAGGU [hsa-miR-5787] | 150%
8 | UCGGGCGCAAGAGCACUGCAGU [hsa-miR-6499-5p] | 43.5%
9 | UGGGGCGGGGCAGGUCCCUGC [hsa-miR-6816-5p] | 71.1%
10 | CGGAUGAGCAAAGAAAGUGGUU [hsa-miR-1255b-5p] | 64.1%
11 | UGUGGACAGUGAGGUAGAGGGAGU [hsa-miR-3138] | 47.9%
12 | CCUGGGCAGCGUGUGGCUGAAGG [hsa-miR-3187-5p] | 66.4%
13 | GUGGUCUCUUGGCCCCCAG [hsa-miR-6848-3p] | 77.3%
14 | UGAGGCGGGGGGGCGAGC [hsa-miR-6087] | 53.3%
15 | AACAUUCAUUGCUGUCGGUGGGU [hsa-miR-181b-5p] | 93.5%
16 | UAAAGACUGUAGAGGCAACUGGU [hsa-miR-7161-5p] | 79.8%
17 | AGCCUGGAAGCUGGAGCCUGCAGU [hsa-miR-1254] | 50.1%
18 | UUUUGUGUCUCCCAUUCCCCAG [hsa-miR-5010-3p] | 57.3%
19 | UGUGGAAGGUAGACGGCCAGAGA [hsa-miR-3190-3p] | 19.8%
20 | AUCAUAUGAACCAAACUCUAAU [hsa-miR-5007-3p] | 107%
21 | UGUCUACUACUGGAGACACUGG [hsa-miR-934] | 37.1%
22 | UGAGUGCCGGUGCCUGCCCUG [hsa-miR-1909-5p] | 46.8%
23 | CGAGCCUCAAGCAAGGGACUU [hsa-miR-2114-3p] | 32.7%

Row | Sequence | percent viability
24 | CCUAGACACCUCCAGUUC [hsa-miR-4305] | 39.4%
25 | AGCUACAGUUACUUUUGCACCA [hsa-miR-548v] | 68.4%
26 | CUUCCGCCCCGCCGGGCGUCG [hsa-miR-718] | 69%
27 | UGUGACUGGUUGACCAGAGGGG [hsa-miR-134] | 28%
28 | UAGCAGCACAUCAUGGUUUACA [hsa-miR-15b-5p] | 26.5%
29 | UGAGAACUGACAAAUGUGGUAGG [hsa-miR-7153-5p] | 61.9%
30 | GGGAUGGUAGACCGGUGACGUGC [hsa-miR-1193] | 24.3%
31 | AAGUUGGCUGCAGUUAAGGUGG [hsa-miR-4715-5p] | 22.1%
32 | GAGUGUAGUUCUGAGCAGAGC [hsa-miR-4280] | 29.9%
33 | CAAAUAAUACCACAGUGGGUGU [hsa-miR-5692a] | 105%
34 | AUAAGACGAACAAAAGGUUUGU [hsa-miR-208b] | 63%
35 | UUAUGGUUUGCCUGGGACUGAG [hsa-miR-584-5p] | 77.9%
36 | AUUCUCUCUGGAUCCCAUGGAU [hsa-miR-4768-5p] | 22.6%
37 | CCUCACCAUCCCUUCUGCCUGC [hsa-miR-6511a-3p] | 41.3%
38 | AAUGCACCUGGGCAAGGAUUCA [hsa-miR-502-3p] | 38.5%
39 | AUGACCUAUGAAUUGACAGAC [hsa-miR-215] | 29.2%
40 | AGAGAUUGGUAGAAAUCAGGU [hsa-miR-5186] | 33.8%
41 | UAUGCAUUGUAUUUUUAGGUCC [hsa-miR-586] | 94.9%
42 | UGGGCGUAUCUGUAUGCUA [hsa-miR-585] | 39.1%
43 | UGGGGCGGAGCUUCCGGAG [hsa-miR-3180] | 25.6%
44 | UGCUUCCUUUCAGAGGGU [hsa-miR-516a-3p] | 100%
45 | GCUGCGGGCUGCGGUCAGGGCG [hsa-miR-4734] | 40.7%

test system: MCF10A; assay: 5+ nucleoli phenotype percent effect (relative to siNT 0% and siKIF11 100%); higher = more cells with five or more nucleoli; details: 20 nM; 72 h
Procedure: as §1

Row | Sequence | 5+ nucleoli phenotype percent effect
46 | UUAGGCCAUCAUCCCAUUAUGC [hsa-miR-5704] | 46.5%
47 | GAACCCAUGAGGUUGAGGCUGCAGU [hsa-miR-1273d] | -8.88%
48 | CCUAUUCUUGAUUACUUGUUUC [hsa-miR-26a-2-3p] | 2.15%
49 | UUGCCAGGGCAGGAGGUGGAA [hsa-miR-5006-5p] | -13.7%
50 | UGGGAGGGCGUGGAUGAUGGUG [hsa-miR-6785-5p] | 15%
51 | UAGGACUGUGCUUGGCACAUAG [hsa-miR-3169] | 20%
52 | GGGCUGGGGCGCGGGGAGGU [hsa-miR-5787] | 60.6%
53 | UCGGGCGCAAGAGCACUGCAGU [hsa-miR-6499-5p] | -9.6%
54 | UGGGGCGGGGCAGGUCCCUGC [hsa-miR-6816-5p] | 30.8%
55 | CGGAUGAGCAAAGAAAGUGGUU [hsa-miR-1255b-5p] | 45.2%
56 | UGUGGACAGUGAGGUAGAGGGAGU [hsa-miR-3138] | 2.7%
57 | CCUGGGCAGCGUGUGGCUGAAGG [hsa-miR-3187-5p] | 41.1%
58 | GUGGUCUCUUGGCCCCCAG [hsa-miR-6848-3p] | 34.8%
59 | UGAGGCGGGGGGGCGAGC [hsa-miR-6087] | -13.4%
60 | AACAUUCAUUGCUGUCGGUGGGU [hsa-miR-181b-5p] | 10.9%
61 | UAAAGACUGUAGAGGCAACUGGU [hsa-miR-7161-5p] | 33.8%
62 | AGCCUGGAAGCUGGAGCCUGCAGU [hsa-miR-1254] | -6.84%
63 | UUUUGUGUCUCCCAUUCCCCAG [hsa-miR-5010-3p] | -18.5%
64 | UGUGGAAGGUAGACGGCCAGAGA [hsa-miR-3190-3p] | -44%
65 | AUCAUAUGAACCAAACUCUAAU [hsa-miR-5007-3p] | 45.1%
66 | UGUCUACUACUGGAGACACUGG [hsa-miR-934] | -13.1%
67 | UGAGUGCCGGUGCCUGCCCUG [hsa-miR-1909-5p] | -15.5%
